Measured values reported in publication PMC7565430, “An Unbiased Immunization Strategy Results in the Identification of Enolase as a Potential Marker for Nanobody-Based Detection of Trypanosoma evansi” (Vaccines, 2020).

Tests used:
[1] = system: T1, TevENO (T. evansi enolase); experiment: PYK/LDH coupled assay, NADH absorbance at […] nm, Michaelis-Menten fit; type: biochemical, Trypanosoma evansi; conditions: 0.1 M triethanolamine/HCl, pH 7.6, 25 °C, 2 mM MgSO4, 17 mM KCl, 1.1 mM ADP, 0.42 mM NADH; 2-PGA 0 to 1 mM
T1 construct: gene ENO; recombinant, codon-optimised gene in pET21b, E. coli BL21(DE3); N-terminal His6 tag and TEV cleavage site, tag cleavage not described

[2] = target: recombinant Trypanosoma evansi enolase (TevENO), His-tagged (Trypanosoma evansi); experiment: SEC; analytical SEC, ENrich SEC 650 10 x 300 column, buffer A (50 mM sodium phosphate, 5 mM MgCl2, pH 7.0); 500 μg TevENO, 168.9 μg Nb11, or mixtures at TevENO:Nb11 monomer ratios 2:1, 2:2, 2:3, 2:4 incubated 1 h; peaks analysed by SDS-PAGE
[3] = target: T2, recombinant Trypanosoma evansi enolase (TevENO), His-tagged (Trypanosoma evansi); experiment: ELISA; heterologous sandwich ELISA: His-tagged Nb11 coated at 1 μg/mL, TevENO 1 μg/mL in PBS, HA-tagged detection Nb at 1 μg/mL; conditions: both partners purified
T2 construct: monomer MM = 48.41 kDa as printed; also called T. evansi enolase; recombinant TevENO; source: E. coli BL21 (DE3), purified (IMAC, SEC)
T2 chain: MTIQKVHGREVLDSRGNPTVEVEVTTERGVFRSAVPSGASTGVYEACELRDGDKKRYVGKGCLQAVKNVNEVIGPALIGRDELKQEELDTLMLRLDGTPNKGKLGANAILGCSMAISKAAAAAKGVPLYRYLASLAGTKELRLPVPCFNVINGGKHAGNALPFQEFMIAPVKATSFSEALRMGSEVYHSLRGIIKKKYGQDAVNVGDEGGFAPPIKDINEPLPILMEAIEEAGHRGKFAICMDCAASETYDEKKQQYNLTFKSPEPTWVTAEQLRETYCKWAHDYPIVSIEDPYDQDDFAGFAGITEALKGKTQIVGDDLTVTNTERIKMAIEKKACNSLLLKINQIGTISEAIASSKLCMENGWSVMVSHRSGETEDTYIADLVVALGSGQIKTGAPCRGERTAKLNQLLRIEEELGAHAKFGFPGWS

O=C(O)[C@@H](CO)OP(=O)(O)O [2-PGA, 2-phosphoglycerate]
Km [1]: 52 µM

recombinant Trypanosoma evansi enolase (TevENO), His-tagged (enzyme)
stoichiometry N [2]: 2

B1: NbR1-10 (VHH)
VHH: QVQLQESGGGLVQPGGSLRLSCAAPGSIFSIFSGNIMGWYRQAPGKQRDFVASISSGGATNYADSVKGRFTISRDNAKNTVYLQMNNLKPEDTAVYYCNTVGGVHTNSWGQGTQVTVSS
notes: alpaca Nanobody; source: E. coli WK6, periplasmic extract, purified (His-Select Nickel resin, SEC)
binding result [3]: binds
